In patent US20100159475:

Key:
[1] = test system: T1, Fluoresceinyl-DLDVPIPGRFDRRVpSVAAE (phosphorylated, fluorescein-tagged RII peptide)
T1 sequence: DLDVPIPGRFDRRVSVAAE

Recombinant calcineurin
dephosphorylation by 0.2 ng calcineurin (fluorimetric calcineurin assay) (autoinhibitory peptide): Dephosphorylation by 0.2 ng calcineurin was significantly reduced (ANOVA) by each of these conditions
amount of dephosphorylated peptide in the unbound fraction after titanium oxide (mass spectrometry) [1]: 30-fold increase in the amount of dephosphorylated peptide in the unbound fraction with the addition of recombinant calcineurin
dephosphorylation of the peptide (fluorimetric calcineurin assay) [1]: Calcineurin in normal buffer resulted in dephosphorylation of the peptide in a dose-dependent manner
relative amount of dephosphorylated to phosphorylated peptide (mass spectrometry) [1]: recombinant calcineurin stimulated a dose-responsive increase in the relative amount of dephosphorylated to phosphorylated peptide
